Assay results from PMC12307654, “Time-dependent catalytic activity in aging condensates” (Nature Communications, 2025).

Substrate: C=C(O[C@H]1C=C[C@H](C(=O)CCC(=O)O)[C@@H](C(=O)O)[C@@H]1O)C(=O)O
Assay: purified protein
Type: biochemical, Escherichia coli
Conditions: free enzyme without scaffold, 20 mM Tris, 150 mM NaCl, 0.5 mM AEBSF, 0.1 mM DTT, 0.1% Triton X-100, 10% glycerol, pH 7.4, room temperature

B1: MenH-RIDD (Escherichia coli K-12) (protein)
chain: MILHAQAKHGKPGLPWLVFLHGFSGDCHEWQEVGEAFADYSRLYVDLPGHGGSAAISVDGFDDVTDLLRKTLVSYNILDFWLVGYSLGGRVAMMAACQGLAGLCGVIVEGGHPGLQNAEQRAERQRSDRQWVQRFLTEPLTAVFADWYQQPVFASLNDDQRRELVALRSNNNGATLAAMLEATSLAVQPDLRANLSARTFAFYYLCGERDSKFRALAAELAADCHVIPRAGHNAHRENPAGVIASLAQILRF
notes: full-length MenH fused to the RIDD docking peptide tag; gene from laboratory stock; free enzyme without FIB1-GFP-RIAD scaffold
Question: With B1 as the protein, how does the Km read?
Answer: 12.75 ± 1.68 µM

Question: What about the kcat of the same protein?
Answer: 1.536 ± 0.0972 s⁻¹
